Assay results from the DeepSol protein solubility set.

experiment: soluble on expression in E. coli; label from the status in PepcDB or PDB records

**Q.** Which “soluble on expression in E. coli” value does the source give for “MGSDKIHHHHHHMPVMFQQMQYFIAIVNNHSFTQAAVDCHISQSAISQQMKELESQLGVKLLNRKGRSFEVTEAGQYFYIHSQDILADVDQLIKKTIKIEKNDEVELRVGYLRSFGTAEFLQTVSKFTQEFPKVKIKISSGTHEELYELLQTGKIDLNFSDQRRALSNEYQNEFLTASEFMVAVNNSLPVETQKIDVADLVDIPCILIIDGHQQVSEEEYYRNVLGVKSEFVIAKSYDEAQMLIASNQGYLIINQRMRTQLDKDIVKMISLVKGDRKLIQNYYAYWQANNSGYYIETFAELLKQTFA” here?
**A.** The value was “not soluble”.

**Q.** Which “soluble on expression in E. coli” value does the source give for “MSLVKPKYQRVVLKLSGEALAGEDGFGIKPPVIKEIVQEIKEVHELGIEMAIVVGGGNIWRGQIGAQMGMERAQADYMGMLATVMNALALQDTLENLGVPTRVQTSIEMRQIAEPYIRRRAERHLEKGRVVIFAGGTGNPYFSTDTTAALRAAEVDADVILMAKNNVDGVYSADPRVDETATKFEELTHLDVISKGLQVMDSTASSLSMDNDIPLVVFNLNEAGNIRRAILGENIGTTVRGKEGHHHHHH” here?
**A.** Its value is “soluble”.

**Q.** Which “soluble on expression in E. coli” value does the source give for “MAHHHHHHMCEKDDITVNEEILQKAQEFQVENEKDIKMKKLKPITEGLLKPEVDLLQISERGSRGRVKICNVLNVPRSEKEYNNNNSDKVENKYIGKIITVCGWSKAIRKQGGGRFCFVNLNDGSCHLNLQIVVNQCIENYEKLLKCGAGCCFRFTGELIISPVQNDNNKKGLLKENVELALNNNDIHNFEIYGENLDPQKYPLSKKNHGKEFLREVAHLRPRSYFISSVIRIRNSLSIATHLFFQSRGFLYIHTPLITTSDCEGGGEMFTVTTLLNENGDIRSIPRINLKNKKKEKREDILNEKNGKKDHMNDSLNNNTCNNNNNNGNSSSSNIVSSPQYEDNYLIDYKKDFFSKQAFLTVSGQLSLENLCSSMGDVYTFGPTFRAENSHTSRHLAEFWMIEPEIAFADLYDNMELAEAYIKYCIDYVLNNNFHDIYYFEENVETNLIKRLKNILNEDFAKITYTNAIEILQNYSDSFEVKVEWGMDLQSEHERFIAEKIFKKPVIVYNYPKDLKAFYMKLNEDNKTVAAMDVLVPKIGEVIGGSQREDNLERLDKMIKEKKLNIDSYWWYRQLRQYGSHPHAGFGLGFERLIMLVTGVDNIKDTIPFPRYPGHAEF” here?
**A.** Its value is “soluble”.

**Q.** Which “soluble on expression in E. coli” value does the source give for “GPGSMINLPDMWTAEQRRQHVAEMYRNKGLICPDYFLKNECPRSSSCSYIHIRNGETRKVPLSVCHFYAKRACLRDKCVFFHGTQAQLDQLHAMGAQTYRPQDYMAFAIPPPELLGTDQNVAPPVVTMPMPVPAPLVNNTMPISKPATNSPLLLLPIDASAATPFSMYWSSSPCQHRSPLSPAPIPGLAEPRPPAVSHPYTVFSFFQ” here?
**A.** The value was “not soluble”.

**Q.** For “MYSVSLMHGNPKTAIRPAGWHYGRRVYWIEGLPLIGHIAFGVIDRGTNVLQVRPSTLCFHNCIFCSVDAGPSSRRRRSEYTVEWEQLVVWVEKVARVKGGGLEALIDGVGEPLTHPHITRIIKALKGLDAIERVALETHGGSLSKSLARALEKAGLDRINLSVDAADPRLARSLVGVDWYGVDRVLKTAEWIIANTSIDVVLTPVVLPGVNEKEMATLVHWARRVGAGRKSGWPTGVLIQKFEIHKYGRKPSTVKSVWGWRRFYTWLARLEKETGYRLLVDPGEIGFKPRPRVEKPFERGDRVTLVLVGPGWHKGELLAVDRGWRRVVALYGLTEGEALTPGAEVEARIVRDKDNIFIAVPYAAALEHHHHHH”, which “soluble on expression in E. coli” value is on record?
**A.** The value was “soluble”.

**Q.** Which “soluble on expression in E. coli” value does the source give for “MGSSHHHHHHSSGLVPRGSHMTAEEMKATESGAQSAPLPMEGVDISPKQDEGVLKVIKREGTGTEMPMIGDRVFVHYTGWLLDGTKFDSSLDRKDKFSFDLGKGEVIKAWDIAIATMKVGEVCHITCKPEYAYGSAGSPPKIPPNATLVFEVELFEFKGEDLTEEEDGGIIRRIQTRGEGYAKPNEGAIVEVALEGYYKDKLFDQRELRFEIGEGENLDLPYGLERAIQRMEKGEHSIVYLKPSYAFGSVGKEKFQIPPNAELKYELHLKSFEKAKESWE” here?
**A.** Its value is “soluble”.

**Q.** Which “soluble on expression in E. coli” value does the source give for “MAHHHHHHMPTSSWRAEHLLIKHSGSRNPVSRRTGQPTTISYEEAVTELQKWCQSINDGKVTFEEAARQRSDCSSYARGGDLGVFGPGEMMKPFEDATKSLEVGQVSGIVVTDSGVHIIKRIA” here?
**A.** The value was “soluble”.

**Q.** With “MAIVKKKKVSAASKAATEKPEVKKAVKRPVAETEAVTPKKKKLVKKVKKSAKKAHEEEPIEQVEKLQLIDDDEDGLEGLSFPGSDDEDLRDDYSDDDSDAGDHLPIEKKSAALDKQKEKIIAEGEEELQLNIANQATFELPTVEEIENEMKSVPNLEIVKQRIADVIQVLGDFKNRRDPQKSRENYVEVLKKDLCSQYGYNDYLMGKFMDLFPNGAELLEFLEANDNPRPVTIRANSLKVKRRDLAKNLINRGMNVDPAADWTKVGLVVYDSQVPVGATPEYLAGHYMIQGLNSLLPVMALAPQPGDRVLDMCSAPGGKTSHIAALMKNSGVLFANDANFTRCRAIIGNLHRLGVNNTVVCNLGGEEFSKIRPNGFDRILLDAPCSGTGVIWKDQSVKTSKDSQDVQRRHTMQRQLILSALDSLDANSPNGGYLVYSTCSVLVEENEAVVNFLLERRHCELVPTGLSIGVDGYTRFRDYRFHPSLSMTKRYYPHVHNIDGFYVAKIKKLSNAKMSKQGVMEKEKEKAAQKSQNKKNKAEAEASESSDDEEEKKNGVEVNGQKKPAKKQQQKKQKADGDDSDDDNNAPMKNIGSGARANKKRRNQKKAAEKQAAVKEDDGFNTVGNVKRAKKPTQFKSKVPKRAAARTGAKSVKNRRKKMLAKQQ” as the sequence, how does the “soluble on expression in E. coli” value read?
**A.** The value was “not soluble”.

**Q.** Which “soluble on expression in E. coli” value does the source give for “MERVNVVGAGLAGSEAAWTLLRLGVPVRLFEMRPKRMTPAHGTDRFAEIVCSNSLGGEGETNAKGLLQAEMRRAGSLVMEAADLARVPAGGALAVDREEFSGYITERLTGHPLLEVVREEVREIPPGITVLATGPLTSEALAEALKRRFGDHFLAYYDAASPIVLYESIDLTKCFRAGRYGQSADYLNCPMTEEEYRRFHQALLEAQRHTPHDWEKLEFFEACVPVEELARRGYQTLLFGPMKPVGLVDPRTGKEPFAVVQLRQEDKAGRMWSLVGFQTGLKWPEQKRLIQMIPGLENAEIVRYGVMHRNTYLNAPRLLGETLEFREAEGLYAAGVLAGVEGYLESAATGFLAGLNAARKALGLPPVAPPEESMLGGLVRYLATANPEGFQPMYANWGLVPPVEGRMGKKEKRQAMYRRGLEAFSAWLSGLNPPLPRPEAALV” here?
**A.** Its value is “soluble”.

**Q.** Which “soluble on expression in E. coli” value does the source give for “MRSVRRREALREWIMAKLYFNYSTMNAGKSTMLLQASYNYQERGMRTLIFTAAFDDRAGVGRVASRIGLSSEARTFDENTDLFAEVAALHAQAPVACVFVDEANFLSEHHVWQLANIADRLNIPVMTYGLRTDFQGKLFPASKELLAIADELREIRTICHCGRKATMVARFDSEGKVVTEGAQIEVGGNGKYVSFCRRHWVETFNCSLEHHHHHH” here?
**A.** Its value is “not soluble”.

**Q.** Which “soluble on expression in E. coli” value does the source give for “MGSDKIHHHHHHMVEIKKICCIGAGYVGGPTCSVIAHMCPEIRVTVVDVNEARINAWNSPTLPIYEPGLKEVVESCRGKNLFFSTNIDDAIREADLVFISVNTPTKTYGMGKGRAADLKYIEACARRIVQNSNGYKIVTEKSTVPVRAAESIRRIFDANTKPNLNLQVLSNPEFLAEGTAIKDLKNPDRVLIGGDETPEGQKAVRALCAVYEHWVPKEKILTTNTWSSELSKLAANAFLAQRISSINSISALCEATGADVEEVATAIGMDQRIGNKFLKASVGFGGSCFQKDVLNLVYLCEALNLPEVARYWQQVIDMNDYQRRRFASRIIDSLFNTVTDKKIAILGFAFKKDTGDTRESSSIYISKYLMDEGAHLHIYDPKVPREQIVVDLSHPGVSADDQVSRLVTISKDPYEACDGAHALVICTEWDMFKELDYERIHKKMLKPAFIFDGRRVLDGLHSELQTIGFQIETIGKKVSSKRIPYTPGEIPKFSLQDPPNKKPKV” here?
**A.** Its value is “not soluble”.

**Q.** With “MGQRSTPQQIPVVVLAGFLGSGKTTLLNHLLHRSGGSRIGAVVNDFGSIEIDAMAVAGALGDSTVSLGNGCLCCAVDASELDGYLARLARPEAGIDVIVIEASGLAEPQELVRMLLASEQPGIVYGGLVEVVDAAEFDDTRARHPEIDRHLALADLVVVNKTDRATDAERVLGLVHSLVGGAAVVPATYGRIDPEFLYDCRPGEERVGQLSFDDLHDHSEGGAHADHLHAAYDTLSFVSGLPLDPRRLMRFLDSRPKGLYRIKGYVDFGPYDTRNRYAVHAVGRFLRFYPEPWTPAGAAGGSGAPETGRTQLVLIGSGIDAAALGEELDACRRDADAPPADEHGMWGVLRYVADGEEPPDSPLEHHHHHH” as the sequence, how does the “soluble on expression in E. coli” value read?
**A.** The value was “not soluble”.

**Q.** For “MGSDKIHHHHHHELVIDITRGVREPMPIAIPVFGGTDAQSSAMGRDVVGVVSNDLQGSGLFRVLDPAAYIQSLPNLAVQPQFADWRAINAQALVQGEVQPQGDGRLRVAFRLWDVFSGQQVVGRAFLTQGDNWRRVSHIIADEIYKAITGEEGYFDTRVVYVAETGPKTNRVKKLAIMDQDGANQRNLTNGESMVLTPRFSPTAQEITYLSYYNSVPRVYLFNIETGRRELLGDFPGMTFAPRFSPDGNKVIMSMALDGNTEIYEMDLRTRRSSRLTNHPSIDTSPSYAPDGRQITFNSDRGGAQQIYVMNADGSGVQRISFGDGRYATPVWSPRGDLIAFTKLKGGRFFIGAMRPDGSGEKILTEGFLVEGPTWAPNGRVLMFFRQDPNGRTTLHSIDVTGYNERQISTPTEASDPAWSPLLP”, which “soluble on expression in E. coli” value is on record?
**A.** Its value is “not soluble”.

**Q.** With “MPKVGMQPIRRQQLIQATLTAVDQVGMGDASIALIARLAGVSNGIISHYFQDKNGLIAATMRHLMNALIQNVRERRQALTEDSPRAHLQVIIEGNFDASQVSGPAMKTWLAFWATSMHHPSLHRLQRINDHRLYSNLCCQFRRTLPLEQARNAARGLAALIDGLWLRGALSGDAFDTEQAQRIAYEYMDFQLAKSAS” as the sequence, how does the “soluble on expression in E. coli” value read?
**A.** Its value is “not soluble”.

**Q.** Which “soluble on expression in E. coli” value does the source give for “MRGSHHHHHHTDPINKDIYQALQQLIPNEKIKVDEPLKRYTYTKTGGNADFYITPTKNEEVQAVVKYAYQNEIPVTYLGNGSNIIIREGGIRGIVISLLSLDHIEVSDDAIIAGSGAAIIDVSRVARDYALTGLEFACGIPGSIGGAVYMNAGAYGGEVKDCIDYALCVNEQGSLIKLTTKELELDYRNSIIQKEHLVVLEAAFTLAPGKMTEIQAKMDDLTERRESKQPLEYPSCGSVFQRPPGHFAGKLIQDSNLQGHRIGGVEVSTKHAGFMVNVDNGTATDYENLIHYVQKTVKEKFGIELNREVRIIGEHPKESLQPSLIS” here?
**A.** Its value is “soluble”.

**Q.** With “MELVKTIQIGDDIYPPIPDLFGIQENQEFNLYKSTDGTLVLSPSDSKLSADHQSISSDEQMTTAVEQARLDEIATSVLSRHLDAFKELTE” as the sequence, how does the “soluble on expression in E. coli” value read?
**A.** The value was “not soluble”.

**Q.** With “MIPYRQLVRMSHLAARFVGGADVHVVDPLVDLRNVFEQTDQLKIALECRNLTVDVEKVKNEYDEWFETYQKWKQADKESISQLKKELRAKKDGLLNALALPNLVHHAGKKQTPLLKPSKHAQYLAQQGLMRIDKQNHVVHLVGYPVVVQKMIREQLVDLFPGCQPISPSYFARAAILEALNIDQSTCIPFTDDSSHFPLTYLVGNSLPAITSPFLKTSFGEKNEWPISVQCTGASYTEKKNQVDLGNARQRMKHCALWMSKSAEELEGIINDANVRVGAYLDEGLDLEVKVREVRGSELKNYESQAFVVENRGLSLSRISRIGDYVSKRLNIQYSGSPATEKSEKSDGFVQMVYVETDIDRILARLVDDLIEGKEPPKYIRDAIKKSF” as the sequence, how does the “soluble on expression in E. coli” value read?
**A.** The value was “not soluble”.

**Q.** Which “soluble on expression in E. coli” value does the source give for “MSLGDKKIRIRRTNEQLDKEVISEFEKLVGEFGFGNVNLSALMKAADLEANVFYRRYGSMDNLYDRLAKQYDFWINNTIDISTLNTLGPKKFFAETFKTLFRNLSENSVMQKLLLYEMTTINSTTKRSAETRDVMNLNLITFYENLFAPAKINIKSIASILIGGIYYLILHKECAKICTIDYKTKEGENAFSEGIDFLTDIIFDRLEMYDRDKKAIRQMISDGISESKICKYMGINKNDLKTLLSEGHHHHHH” here?
**A.** Its value is “soluble”.
